The results in this text go back to patent publication US20200405852A1 (BIOVERATIV USA, published 2020).

Assay [1] concerns the target T1, activated human complement C1s (human, UniProt P09871 16-688).
T1 sequence: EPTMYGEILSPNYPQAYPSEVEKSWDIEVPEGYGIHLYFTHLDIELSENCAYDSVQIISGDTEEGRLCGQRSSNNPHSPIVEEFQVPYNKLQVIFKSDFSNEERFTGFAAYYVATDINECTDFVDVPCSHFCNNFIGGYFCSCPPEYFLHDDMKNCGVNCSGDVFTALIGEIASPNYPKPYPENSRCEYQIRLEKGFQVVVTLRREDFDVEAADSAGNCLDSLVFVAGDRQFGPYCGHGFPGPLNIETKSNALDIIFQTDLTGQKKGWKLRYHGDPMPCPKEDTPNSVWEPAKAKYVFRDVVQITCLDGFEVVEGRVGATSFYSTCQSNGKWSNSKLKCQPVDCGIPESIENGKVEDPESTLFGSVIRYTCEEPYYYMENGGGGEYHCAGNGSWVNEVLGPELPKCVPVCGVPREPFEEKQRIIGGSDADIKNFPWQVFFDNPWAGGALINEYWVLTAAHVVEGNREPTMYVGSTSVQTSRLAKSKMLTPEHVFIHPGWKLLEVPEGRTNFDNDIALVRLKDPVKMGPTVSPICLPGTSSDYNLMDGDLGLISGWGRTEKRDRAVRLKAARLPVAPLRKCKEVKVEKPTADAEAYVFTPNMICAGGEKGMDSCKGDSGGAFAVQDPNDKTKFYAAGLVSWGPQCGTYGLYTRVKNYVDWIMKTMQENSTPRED
The experiment in a line: cell-based or functional assay.

Assay [2] concerns the target T1, activated human complement C1s. Kind of assay: direct binding of antibody to activated C1s (aC1s); assay format not stated.
Assay [3] has the same target. The experiment in a line: competition binding to active C1s; competitor 50 pM biotinylated TNT005 (Biot-005). Here is the method:
All 15 combinations (VH variant 1+Vk variant 1; VH variant 1+Vk variant 2; VH variant 1+Vk variant 5; VH variant 2+Vk variant 1; VH variant 2+Vk variant 2; VH variant 2+Vk variant 5; VH variant 3+Vk variant 1; VH variant 3+Vk variant 2; VH variant 3+Vk variant 5; VH variant 4+Vk variant 1; VH variant 4+Vk variant 2; VH variant 4+Vk variant 5; VH variant 5+Vk variant 1; VH variant 5+Vk variant 2; VH variant 5+Vk variant 5) were produced. Each humanized variant was tested for the ability to compete with biotinylated TNT005 for binding to active C1s.

The target is the same in assay [4]. Kind of assay: kinetic characterization of binding to active human C1s; instrument not stated; column head kdis.
The target is the same in assay [5]. Kind of assay: kinetic characterization of binding to active human C1s; instrument not stated.

B1: humanized TNT005 variant VH variant 2+Vk variant 1 (antibody, V domains shown)
VH: EVQLVQSGAEVKKPGASVKLSCTASGFNIKDDYIHWVKQAPGQGLEWIGRIDPADGHTKYAPKFQVKATITADTSTNTAYLELSSLRSEDTAVYYCARYGYGREVFDYWGQGTTVTVSS
VL: DIVLTQSPDSLAVSLGERATISCKASQSVDYDGDSYMNWYQQKTGQPPKILIYDASNLESGIPARFSGSGSGTDFTLTISSLEEEDFAIYYCQQSNEDPWTFGGGTKVEIK
notes: also called VH variant 2 + VL variant 1
For B1, the “IC50 of classical complement pathway inhibition (commercial CP activation assay)” value in assay [1] worked out at 1.23 nM. This molecule also came in with an EC50 in assay [2] of 0.137 nM. Also, the IC50 in assay [3] amounted to 0.144 nM. Moreover, the koff in assay [4] came to 0.000208 s⁻¹. Moreover, in assay [5], the Kd stood at 0.251 nM and the kon amounted to 829000 M⁻¹ s⁻¹.

B2: humanized TNT005 variant VH variant 2+Vk variant 5 (antibody, V domains shown)
VH: EVQLVQSGAEVKKPGASVKLSCTASGFNIKDDYIHWVKQAPGQGLEWIGRIDPADGHTKYAPKFQVKATITADTSTNTAYLELSSLRSEDTAVYYCARYGYGREVFDYWGQGTTVTVSS
VL: DIVLTQSPDSLAVSLGERATISCKASQSVDYDGDSYMNWYQQKPGQPPKLLIYDASNLESGIPARFSGSGSGTDFTLTISSLEPEDFAVYYCQQSNEDPWTFGGGTKVEIK
notes: also called VH variant 2 + VL variant 5
On to B2, for which the “IC50 of classical complement pathway inhibition (commercial CP activation assay)” value in assay [1] was determined as 1.27 nM. Also, the EC50 in assay [2] was 0.124 nM. In addition, the concentration for half-maximal inhibition (IC50) in assay [3] came to 0.168 nM. The same molecule displayed a koff in assay [4] of 0.000166 s⁻¹. For the same molecule, in assay [5], the Kd amounted to 0.208 nM and the kon turned out to be 798000 M⁻¹ s⁻¹.

B3: humanized TNT005 variant VH variant 5+Vk variant 1 (antibody, V domains shown)
VH: QVQLVQSGAEVKKPGASVKVSCAASGFNIKDDYIHWVRQAPGQGLEWIGRIDPADGHTKYAPKFQVKVTITADTSTSTAYMELSSLRSEDTAVYYCARYGYGREVFDYWGQGTTVTVSS
VL: DIVLTQSPDSLAVSLGERATISCKASQSVDYDGDSYMNWYQQKTGQPPKILIYDASNLESGIPARFSGSGSGTDFTLTISSLEEEDFAIYYCQQSNEDPWTFGGGTKVEIK
notes: also called VH variant 5 + VL variant 1
For the molecule B3, the “IC50 of classical complement pathway inhibition (commercial CP activation assay)” value in assay [1] came out at 1.06 nM. The molecule also yielded an EC50 in assay [2] of 0.113 nM. Besides, the IC50 in assay [3] was 0.0449 nM. Further, the koff in assay [4] worked out at 0.000471 s⁻¹. In assay [5], this molecule came in with a Kd of 0.457 nM and an on-rate (kon) of 1.03e+06 M⁻¹ s⁻¹.

B4: humanized TNT005 variant VH variant 2+Vk variant 2 (antibody, V domains shown)
VH: EVQLVQSGAEVKKPGASVKLSCTASGFNIKDDYIHWVKQAPGQGLEWIGRIDPADGHTKYAPKFQVKATITADTSTNTAYLELSSLRSEDTAVYYCARYGYGREVFDYWGQGTTVTVSS
VL: DIVLTQSPDSLAVSLGERATISCKASQSVDYDGDSYMNWYQQKPGQPPKILIYDASNLESGIPARFSGSGSGTDFTLTISSLEPEDFAIYYCQQSNEDPWTFGGGTKVEIK
notes: also called VH variant 2 + VL variant 2
As for B4, the “IC50 of classical complement pathway inhibition (commercial CP activation assay)” value in assay [1] was found to be 1.26 nM. In assay [2], this molecule registered a 50% effective concentration (EC50) of 0.134 nM. Besides, in assay [3], the IC50 came to 0.158 nM. Besides, the koff in assay [4] is 0.000172 s⁻¹. In assay [5], binding was put at a Kd of 0.206 nM and the kon came out at 835000 M⁻¹ s⁻¹.

The term EC50 denotes the concentration that produces a half-maximal response. High values mean weaker potency, low ones greater potency. The IC50 is the concentration needed to halve the response being measured. In general, koff refers to the rate constant with which the complex falls apart. For orientation: Kd means a measure of binding affinity in units of concentration. A low value points to a tighter complex. Usually kon stands for a measure of how fast the partners come together. Low readings indicate slower complex formation, high ones faster complex formation.
